From the nanobody polyreactivity screen of Harvey et al. (2022)

Assay: yeast display, Sf9 membrane polyspecificity reagent, FACS + sequencing; frameworks hold sequencing errors
Outline: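 Nanobodies came from a synthetic yeast display library in Saccharomyces cerevisiae BJ5465, induced with galactose for 36–48 hours and stained for 1 hour at 4 °C with 10% biotinylated, detergent-solubilized Sf9 membrane reagent. Cells were enriched on streptavidin microbeads and then FACS-sorted, with low and high (top ~1%) gates set on anti-HA fluorescence for expression and streptavidin fluorescence for reagent binding. Each polyreactivity label reflects the gate a clone came from. Genes were amplified by colony PCR, sequenced by MiSeq 2 × 250 and filtered by CDR length.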

For “QVQLVESGVGIVQAGGSLRLSCAASGRIFFTYAMVWYRQAPGKERELVASITGSGGSTYYADSVKGRFTISRDNAKNTVYLQMNSLKPEDTAVYYCAAALFRRQLYRKFYYWGQGTQVSVSS”, which “polyreactivity (PSR sort gate)” value is on record?
Its value is “low polyreactivity”.

Which “polyreactivity (PSR sort gate)” value does the source give for “QVQLVESGGGLVQAGGSLRLSCAASGSTFTVYAMGWYRQAPGKERELVAAISSSTGSTYYADSVKGRFTISRDNAKNTVYLQMNSLKPEDTAVYYCAADVYQVTTSSYTEFEYWGQGTQVTVSS” here?
The value was “low polyreactivity”.

With “QVQLVESGGGLVQAGGSLRLSCAASGLIFAYNTMGWYRQAPGKERELVAGITSSGSTYYADSVKGRFTISRDNEKNTVYLQMNSLKPEDTAVYYCAAEWDDGRSWYWYYLVGFEYWGQGTQVTVSS” as the sequence, how does the “polyreactivity (PSR sort gate)” value read?
The value was “high polyreactivity”.

With “QVQLVESGGGLVQAGGSLRLSCAASGSILRGYAMGWYRQAPGKERELVAAITWNGGSTYYADSVKGRFTISRDNAKNTVYLQMNSLKPEDTAVYYCNRAIGPYSYPDNYWGQGTQVTVSS” as the sequence, how does the “polyreactivity (PSR sort gate)” value read?
Its value is “high polyreactivity”.

For “QVQLVESVGGLVQAGGSLRLRCGASGSIFYIYAMGWYRHAPGNERELVAAITRRAATYADSVKGRFTISRDNAKKTGYLQMNSLKPEDTAVYYCNADVQRLGRYDYWGQGTQVTVSS”, which “polyreactivity (PSR sort gate)” value is on record?
The value was “high polyreactivity”.

For “QVHLVESGGGLVQAGGSLRLSCAASGSTFQTNAMGWSRQAPGKERELVAAISRTGGRSNYADSVKGRFTISRDNAKNTVYLQMHSLKPEDTAVYDCAAGVPKTGQAGYDYWGQGTQVTVSS”, which “polyreactivity (PSR sort gate)” value is on record?
Its value is “high polyreactivity”.

With “QVQLVESGGGLVQAGGSLRLSCAASGIIFGRYAMGWYRQAPGKERELVAAITRSGGRTYYADSVKGRFTISRDNAKNTVYLQMNSLKPEDTAVYYCAADASGHSYDYWGQGTQVTVSS” as the sequence, how does the “polyreactivity (PSR sort gate)” value read?
Its value is “high polyreactivity”.

For “QVQLVESGGGLVQAGGSLRLSCAASGIIFSKYAMGWYRQAPGKERELVARISWRGGDTYYADSVKGRFTISRDNAKNTVYLQMNSLKPEDTAVYYCNARIWGRYFSYTRFDYWGQGTQVTVSS”, which “polyreactivity (PSR sort gate)” value is on record?
The value was “high polyreactivity”.

With “QFQLVESRGGLVKAGGSLRLTCAASGSILYQNTMGWYRQATGKERELVAAISGSGSRTYYADSVKGRFTISRDNAKNTVYLQMNSLKPEDTAVYYCAASGYWPFRSGFGYWGQGTQVTVSS” as the sequence, how does the “polyreactivity (PSR sort gate)” value read?
Its value is “high polyreactivity”.

For “QVQLVESGGGLVQAGCSLRLSCGASGSIFAYYDMGWYREAPGTEREVVAAITTRDDDTYYADSVKGRFTISRDTAKNPVYLQMNSLKPEDTAVYYCAAAWWDYGNGKYDYWGQGTQVTVSS”, which “polyreactivity (PSR sort gate)” value is on record?
Its value is “low polyreactivity”.

With “QVQLVESGGGLVQAGGSLRLSCAASGSIFTGYAMGWYRQAPGKERELVAAISWSGGSTSYADSVKGRFTISLDKAKNDVYLQMNSLKPEDTAVYYCAAERKARTYGYWGQGTEVTVSS” as the sequence, how does the “polyreactivity (PSR sort gate)” value read?
The value was “high polyreactivity”.

With “QVQLVESGGGLVQAGCSGSLSCAASGRIFQRNSMGWYRQAPGKEREFVAAITKSGGGTYADSVKGRFTISRDNAKNTVYLQMNSLKPEDTAVYYCNVVPVWRPYSLINWQKHFGYWGQGTQVTVSS” as the sequence, how does the “polyreactivity (PSR sort gate)” value read?
The value was “high polyreactivity”.

Which “polyreactivity (PSR sort gate)” value does the source give for “QVQLVESGGGLVQAGGRLRLSCAASGLIFRTYTMVWYRQAPGKERELVATITRRGGTTYYADSVKGRFTISRDNAKNTVYLQMNSLKPEDTAVYYCAAKSAYHGLVGGYYYWGQGTQVTVSS” here?
The value was “high polyreactivity”.

For “QVQLVESGGGFVQAGCSLRLSCAASGSIFLYNAMGWYRQAPGNDRELVATISYIGGRTYYADSVKGRFSISRDKAKNTVYSQMNSLKPEDTAVYYCAAEYYVISSPSFYEYDYWGQGTQVTVSS”, which “polyreactivity (PSR sort gate)” value is on record?
The value was “low polyreactivity”.

Which “polyreactivity (PSR sort gate)” value does the source give for “QVQLVESGGGLVQAGGSLRLSCAASGITFGRYVMGWYRQAPGKERELVATISSGGRTKYADSVKGRFSISRDNAKNTVYLQMNSLKPEDTAGYYCNAESPKWPWYSGFDYWGQGTQVTVSS” here?
The value was “high polyreactivity”.

For “QVQLVESGGGLVQAGGSLRLSCAASGSIFKQYAMGWYRQAPGKERELVAAITWRGTGTYYADSVKGRFTISRDNAKNTVYLQMNSLKPEDTAVYYCAAKWYRRTYGYLPYTGIVNYDYWGQGTQVTVSS”, which “polyreactivity (PSR sort gate)” value is on record?
Its value is “high polyreactivity”.

With “EEELVESGGGLVQAGGSLRLSCAASGIIFGYYAMGWYRQAPGKERELVAAITRSGSSTYYADSVKGRFTISRDNAKNTVYLQMNSLKPEDTAVVSCAADNFYQAYGYWGQGTQVTVSS” as the sequence, how does the “polyreactivity (PSR sort gate)” value read?
The value was “low polyreactivity”.

For “QVQHVESVGGLVQAGGSLRLSCASSGRTLFYYTMRWYRQARGTERELVAAISSGDSTNYADSVKGRFTISRDNAKNTVYLHMNSLKPEDTAVYYCAARFYQIRRRYDYWGQGTQVTVSS”, which “polyreactivity (PSR sort gate)” value is on record?
The value was “low polyreactivity”.

Which “polyreactivity (PSR sort gate)” value does the source give for “QVQLVESGGGLVQAGGSLRLSCAASGNTFRWYAMGWYRQAPGKEREFVADITVRGGSTYYADSVKGRFTISRDNAKNTVYLQMNSLKPEDTAVYYCAVDFRRYPGFDYWGQGTQVTVSS” here?
The value was “low polyreactivity”.

For “QVQLVESVGGLVQAGGSLRLSCAASGNIFSSYAMGWYRQAPGKERELVARITTSAGRTYDADSVKGRFTISRDNAKNTVDLQMNSLKPEDTPVYYCAVDWYGSYGYGGSQNSDYWGQGTQVTVSS”, which “polyreactivity (PSR sort gate)” value is on record?
Its value is “high polyreactivity”.

For “QVQLVESGGGLVQAGGSLRLSCSASGHIFRTYAMGWYRQAPWKERELVAGITPNGDTTYYADSVKGRFTISRDHAKITVYLQMNSLKPEDTAVYYCDAQYSQRPADRYNSWGQGTQVTVSS”, which “polyreactivity (PSR sort gate)” value is on record?
The value was “low polyreactivity”.

For “QVQLVESGGGLVQAGGSLRLSCAASGFIFTNYAMGWYRQAPGKERELVAAITRRGGGTYYADSVKGRFTISRDNAKNTVYLQMNSLKPEDTAVYYCAKYSRLVTANDYDYWGQGTQVTVSS”, which “polyreactivity (PSR sort gate)” value is on record?
The value was “high polyreactivity”.
